For the test, the target named is HLA-A*02:01. The test is described as follows: differential scanning fluorimetry. Background: DSF heats the sample and reads unfolding from a dye or from intrinsic fluorescence.

Take “F7A-modified PMEL_(209(2M)–217) epitope (peptide)”: the Tm of the peptide/HLA-A*02:01 complex was 61.7 °C.

Turning to IMDQVPFSV [PMEL_(209(2M)–217) epitope (…)], the Tm of the peptide/HLA-A*02:01 complex came out at 61.9 °C.

The values above are taken from publication PMC7897774.
